This note sets out measurements from patent publication US20240327503A1.

pEC50: −log10 of the molar value.

The target in the test is SARS-CoV-2 spike ECD S-2P (SARS-CoV-2) (UniProt P0DTC2).

As a reminder, the pEC50 is −log10 of the EC50, conventionally taken in molar units. Read a low pEC50 as a large EC50. On to CR3022 (antibody), for which the pEC50 was 8.44.
